For test [1], the target named is T1, 生物素标记的人PD-L1(acro，货号:PD1-H82E5) (human, UniProt Q9NZQ7 19-238, biotin label (site not stated)).
T1 construct: Bought biotinylated protein; also called Biotin hPD-L1; BiotinhPD-L1
The test is described as follows: BLI (Octet RED96e), avidity format: Biotin hPD-L1 on SA sensor, antibody in solution. Background: Biolayer interferometry detects binding as a change in optical thickness at a sensor tip.

The target of test [2] is T2, CHOK1-h PD-L1(GenScript M00543)细胞表面PD-L1 (human, UniProt Q9NZQ7 19-290).
T2 construct: whole, on cells; also called 细胞表面抗原PD-L1
Description: FACS competition: blocks Biotin PD-1 mFc binding to CHOK1-hPD-L1 cells.

Test [3] deals with T3, 生物素标记的鼠PD-L1(Sino，货号:50010-M08H-B) (mouse, UniProt Q9EP73 19-238, biotin label (site not stated)).
T3 construct: Bought biotinylated protein; also called Biotin mPD-L1
T3 sequence (Q9EP73 19-238 limits assumed, stated change not applied): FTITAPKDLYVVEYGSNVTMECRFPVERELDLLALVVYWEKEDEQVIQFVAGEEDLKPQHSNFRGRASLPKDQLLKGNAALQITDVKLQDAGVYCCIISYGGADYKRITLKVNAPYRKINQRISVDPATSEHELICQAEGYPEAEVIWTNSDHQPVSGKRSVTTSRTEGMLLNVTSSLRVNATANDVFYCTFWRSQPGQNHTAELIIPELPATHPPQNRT
Description: BLI (Octet RED96e), avidity format: Biotin mPD-L1 on SA sensor, antibody in solution.

The target in test [4] is T4, 人PD-L1 his(Acro，货号:PD1-H5229) (human, UniProt Q9NZQ7 19-238).
T4 construct: Bought protein; also called human PD-L1 his; not shown: His tag
Description: BLI (Octet RED96e), affinity format: antibody on AHC sensor, human PD-L1 his in solution.

Test [5] addresses T5, 猴PD-L1-Fc(Acro，货号:PD1-C5253) (monkey (cynomolgus)).
T5 construct: Bought Fc fusion; also called Cyno PD-L1; 食蟹猴PD-L1
The test is described as follows: BLI (Octet RED96e), avidity format: antibody on CH1 sensor, monkey PD-L1-Fc in solution.

In test [6] the target is T2, CHOK1-h PD-L1(GenScript M00543)细胞表面PD-L1. The test is described as follows: FACS on CHOK1-hPD-L1 cells.

This note sets out measurements from patent CN114380913A (SHANGHAI LUBRIGHT MEDICINE TECH CO LTD, dated 2022).

B1: Ab1910T2 (antibody, human IgG1, kappa, N297A, V domains shown)
VH: EVQLVESGGGLVQPGGSLRLSCAASGFPFTNYAMSWVRQAPGKGLEWVSSISGSGAGTYYADSVKGRFTISRDNSKNTLYLQMNSLRAEDTAVYYCAKDLFPTIFGVVTTNYMDVWGKGTTVTVSS
VL: DIQMTQSPSSLSASVGDRVTITCRASQSISSYLNWYQQKPGKAPKLLIYSASSLQIGVPSRFSGSGSGTDFTLTISSLQPEDFATYYCQQSYSIPVTFGQGTKVEIKR
notes: Full human IgG1 (Fc N297A) / kappa, made in ExpiCHO; also called 本申请抗PD-L1抗体Ab1910T2; 所述抗PD-L1单克隆抗体
Consider B1, for which the Kd was ~0.15 nM in test [1], ~0.58 nM in test [3], ~26 nM in test [4] and ~0.79 nM in test [5]. The molecule further gave an IC50 in test [2] of 1.02 µg/mL. In addition, in test [6], the EC50 was 0.02 µg/mL.

As usually defined, the IC50 is the midpoint of a concentration-inhibition curve. Broadly, the EC50 is the concentration needed to bring the measured effect to its halfway point.
